Literature values in PMC3957495.

Key:
[1] = target: CRF (UniProt P06850)
[2] = target: CRF (UniProt P06850); remark: listed apart in the source
[3] = target: Urocortin 1 (UniProt P55089)
Chain of Urocortin 1 (P55089 83-122): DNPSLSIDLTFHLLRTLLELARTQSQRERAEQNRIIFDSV

Chain of CRF (P06850 154-194): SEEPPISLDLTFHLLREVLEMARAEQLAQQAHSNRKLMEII
Chain of sCRF2a receptor (Q60748 20-411): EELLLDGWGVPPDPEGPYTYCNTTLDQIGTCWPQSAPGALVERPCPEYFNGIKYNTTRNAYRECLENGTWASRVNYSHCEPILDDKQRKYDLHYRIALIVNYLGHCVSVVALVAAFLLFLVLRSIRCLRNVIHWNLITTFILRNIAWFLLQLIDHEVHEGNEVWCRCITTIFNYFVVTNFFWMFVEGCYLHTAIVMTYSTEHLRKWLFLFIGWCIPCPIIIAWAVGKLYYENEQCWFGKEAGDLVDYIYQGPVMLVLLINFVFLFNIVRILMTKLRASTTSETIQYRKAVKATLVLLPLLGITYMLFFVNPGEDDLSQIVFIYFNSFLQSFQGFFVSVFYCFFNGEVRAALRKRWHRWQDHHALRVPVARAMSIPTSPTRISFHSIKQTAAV
Chain of CRF2a-tr (P47866 20-411): as the sequence (Q60748 20-411) above, with V10E, T19S, V100I, A146T, I168V, I221V, A241P, V253I, M254I, A349S counted along it

Kd [1]	Ki [2]	Ki [3]	Substance
12.7 nM	–	–	CRF2a-tr (from UniProt P47866)
–	23 nM	6.6 nM	sCRF2a receptor (from UniProt Q60748)
